Like-named read-outs stand apart in the source and are kept apart here.
Tests used:
[1] = Biodistribution in U87MG glioma nude mice; assay type: in vivo; settings: female, athymic nu/nu nude, mouse, in vivo, iv, 3 uCi, total radioactivity
Description: (§1) U87MG cells are purchased from US ATCC (Manassas, Va.). Cell culture conditions: […] […] 7 random U87MG glioma nude mice (20-25 g) are selected. […] After 60 minutes, a great amount of sodium pentobarbital is injected for executing the mice. Blood samples are collected from the mouse hearts. Tumor, normal organs (brain, eyes, heart, spleen, lung, liver, kidney, muscle and intestine) and tumor tissues are collected and washed by saline. Then they are dried by absorbent tissue, weighed by Perkin Elmer Wizard 1480 γ counter (Shelton, Conn.). The organ intake is measured by the percentage of the injection dose per gram of the tissue (% ID/g).

U87MG glioma [2] = experiment: Biodistribution in U87MG glioma nude mice; assay type: in vivo
Description: as §1

[3] = normal mice, research period over 2 hours
Description: X. Normal mice (n=2) are selected for the metabolism research of the stability of ^99mmTc-4P-RGD3 in vivo, Each animal is injected with about 10 MBq of ^99mTc-4P-RGD3. The bladders are squeezed manually after 30 minutes and 120 minutes, respectively. The urine samples are collected and are mixed with 50% aqueous acetonitrile with the same volume. The mixture is centrifilged under 8,000 rpm. The supernatant is collected and is filtered by a 0.20 μm Millex-LG filter. The filtrate is analyzed by the HPLC. The fecal samples 120 minutes after the injection is collected, and is treated for homogenization by 20% of aqueous acetonitrile. The obtained mixture is rotated for about 5 minutes and then is centrifuged under 8,000 rpm. The supernatant is collected and is filtered by a 0.20 μm. Millex-LG filter. The filtrate is analyzed by the HPLC.

U87MG glioma [4] = settings: SPECT/CT
Description: The preparation of ^99mTc-4P-RGD3 for the research of biodistribution includes incorporating ^99mTc-4P-RGD3 solution into physiological saline until the activity concentration is 10-30 mCi/mL. The preparation of ^99mTc-4P-RGD3 for tumor imaging includes incorporating ^99mTc-4P-RGD3 solution into physiological saline until the activity concentration is about 10 mCi/mL. During the experiments, each of the animal is injected with about 0.1 mL of the solution.
Biodistribution and tumor imaging are performed under the guidance of US National Institutes of Health animal experiments (1985, NIH 86-23, Laboratory Animal Care). U87MG cells are purchased from US ATCC (Manassas, Va.). Cell culture conditions: DMEM medium (non-essential amino acids sodium pyruvate) containing 10% of fetal bovine serum and 1% of penicillin and streptomycin. The cells are cultured under 37° C. with 5% of CO2. When the cells are grown to 90% confluence, they grow exponentially. The cells can be grown to a single layer, multiple layers or split layers. Female athymic nu/nu nude mice aged 4-5 weeks are used for the experiments, 5×10^6 of tumor cells are incorporated into 0.1 mL of physiological saline and are planted to shoulder subcutaneous of the mice under sterile conditions. About 4 weeks after planting, the tumor cells grow to 0.1-0.5 g for the use of biodistribution and imaging.

SMILES	tissue uptake at 1 h ([1]; Organ intake, Blood) [%ID/g]	tissue uptake at 1 h ([1]; Organ intake, Brain) [%ID/g]	tissue uptake at 1 h ([1]; Organ intake, Eye) [%ID/g]	tissue uptake at 1 h ([1]; Organ intake, Heart) [%ID/g]	tissue uptake at 1 h ([1]; Organ intake, Kidney) [%ID/g]	tissue uptake at 1 h ([1]; Organ intake, Liver) [%ID/g]	tissue uptake at 1 h ([1]; Organ intake, Lung) [%ID/g]	tissue uptake at 1 h ([1]; Organ intake, Muscle) [%ID/g]	tissue uptake at 1 h ([1]; Organ intake, Spleen) [%ID/g]	tissue uptake at 1 h ([1]; Tumor intake) [%ID/g]	Tumor intake (U87MG glioma [2]; mouse, in vivo) [% ID/g]	other results
N=C(N)NCCC[C@@H]1NC(=O)[C@H](CCCCNC(=O)CCOCCOCCOCCOCCNC(=O)CC[C@H](NC(=O)CCOCCOCCOCCOCCNC(=O)c2ccc(NN)nc2)C(=O)NCCOCCOCCOCCOCCC(=O)NCCCC[C@@H]2NC(=O)[C@@H](Cc3ccccc3)NC(=O)[C@H](CC(=O)O)NC(=O)CNC(=O)[C@H](CCCNC(=N)N)NC2=O)NC(=O)[C@@H](Cc2ccccc2)NC(=O)[C@H](CC(=O)O)NC(=O)CNC1=O [^99mTc-3P-RGD2, metal not drawn]	0.47 ± 0.06	0.17 ± 0.03	1.4 ± 0.13	1.67 ± 0.15	12.3 ± 1.09	2.92 ± 0.77	4.25 ± 0.63	1.12 ± 0.15	3.11 ± 0.18	7.24 ± 0.95	7.24±0.95	
N=C(N)NCCC[C@@H]1NC(=O)[C@H](CCCCNC(=O)CCOCCOCCOCCOCCNC(=O)CCC(CCC(=O)NCCOCCOCCOCCOCCC(=O)NCCCC[C@@H]2NC(=O)[C@@H](Cc3ccccc3)NC(=O)[C@H](CC(=O)O)NC(=O)CNC(=O)[C@H](CCCNC(=N)N)NC2=O)(CCC(=O)NCCOCCOCCOCCOCCC(=O)NCCCC[C@@H]2NC(=O)[C@@H](Cc3ccccc3)NC(=O)[C@H](CC(=O)O)NC(=O)CNC(=O)[C@H](CCCNC(=N)N)NC2=O)NC(=O)CCOCCOCCOCCOCCNC(=O)c2ccc(NN)nc2)NC(=O)[C@@H](Cc2ccccc2)NC(=O)[C@H](CC(=O)O)NC(=O)CNC1=O (stereo partly drawn) [^99mTc-4P-RGD3, metal not drawn]												tissue uptake at 1 h ([1]; U87MG glioma nude mice, 60 minutes after tail vein injection, read-out: Organ intake, Blood): 0.53 ± 0.14 %ID/g; tissue uptake at 1 h ([1]; U87MG glioma nude mice, 60 minutes after tail vein injection, read-out: Organ intake, Brain): 0.14 ± 0.01 %ID/g; tissue uptake at 1 h ([1]; U87MG glioma nude mice, 60 minutes after tail vein injection, read-out: Organ intake, Eye): 0.46 ± 0.23 %ID/g; tissue uptake at 1 h ([1]; U87MG glioma nude mice, 60 minutes after tail vein injection, read-out: Organ intake, Heart): 0.56 ± 0.19 %ID/g; tissue uptake at 1 h ([1]; U87MG glioma nude mice, 60 minutes after tail vein injection, read-out: Organ intake, Kidney): 9.1 ± 2.31 %ID/g; tissue uptake at 1 h ([1]; U87MG glioma nude mice, 60 minutes after tail vein injection, read-out: Organ intake, Liver): 1.92 ± 0.62 %ID/g; tissue uptake at 1 h ([1]; U87MG glioma nude mice, 60 minutes after tail vein injection, read-out: Organ intake, Lung): 1.14 ± 0.41 %ID/g; tissue uptake at 1 h ([1]; U87MG glioma nude mice, 60 minutes after tail vein injection, read-out: Organ intake, Muscle): 0.35 ± 0.17 %ID/g; tissue uptake at 1 h ([1]; U87MG glioma nude mice, 60 minutes after tail vein injection, read-out: Organ intake, Small Intestine): 1.65 ± 0.37 %ID/g; tissue uptake at 1 h ([1]; U87MG glioma nude mice, 60 minutes after tail vein injection, read-out: Organ intake, Spleen): 1.33 ± 0.52 %ID/g; tissue uptake at 1 h ([1]; U87MG glioma nude mice, 60 minutes after tail vein injection, read-out: Tumor intake): 7.34 ± 1.66 %ID/g; Intake background in organs of the whole body (intestine, liver, lung, muscle, spleen, kidney) (U87MG glioma [2]; 60 minutes after injection, compared with ^99mTc-3P-RGD2 and ^99mTc-Galacto-RGD2): significantly decreased; Tumor intake (U87MG glioma [2]; U87MG glioma nude mice, 60 minutes after tail vein injection): 7.34±1.66 % ID/g; Metabolites detected in the urine samples and the fecal samples (radio-HPLC) [3]: no metabolites; Radioactive accumulation in animal abdomen (especially in intestines) (U87MG glioma [4]; compared with ^99mTc-3P-RGD2 and ^99mTc-Galacto-RGD2): the lowest; Tumor intake based on the SPECT quantization (U87MG glioma [4]; glioma nude mice, about 37 MBq injected): about 7.34 ID/g
N=C(N)NCCC[C@@H]1NC(=O)[C@H](CCCCNC(=O)[C@H]2O[C@@H](CNC(=O)COCCOCCn3cc(CNC(=O)CC[C@H](NC(=O)c4ccc(NN)nc4)C(=O)NCc4cn(CCOCCOCC(=O)NC[C@@H]5O[C@H](C(=O)NCCCC[C@@H]6NC(=O)[C@@H](Cc7ccccc7)NC(=O)[C@H](CC(=O)O)NC(=O)CNC(=O)[C@H](CCCNC(=N)N)NC6=O)[C@H](O)[C@H](O)[C@H]5O)nn4)nn3)[C@H](O)[C@@H](O)[C@H]2O)NC(=O)[C@@H](Cc2ccccc2)NC(=O)[C@H](CC(=O)O)NC(=O)CNC1=O [^99mTc-Galacto-RGD2, metal not drawn]	0.56 ± 0.25	0.35 ± 0.28	0.81 ± 0.39	1.27 ± 0.61	11.7 ± 4.06	3.07 ± 2.14	2.93 ± 0.94	0.88 ± 0.34	1.99 ± 0.71	6.86 ± 1.33	6.86±1.33	tissue uptake at 1 h ([1]; Organ intake, Small Intestine): 5.45 ± 1.47 %ID/g

Reference: patent publication US20160235871A1, “Spect Radionuclide-labeled Trimeric Cycle RGD Peptide, Preparation Method Thereof and Imaging Method Thereof” (Bailing Cloud Biomedical Technologies Innovation, priority 2015, published 2016)
